Experimental data from the DeepSol protein solubility set.

assay: soluble on expression in E. coli; label from the status in PepcDB or PDB records

Sequence | soluble on expression in E. coli
KEYSHLPIKGNESNLIDTLEDAISLRVPKNRPFAVALSGGLDSSIIAYILEARLSENAHYYVVGERYPDSVLALLEHLNICLSRVHLIKPPPADELLKLITKTCHITKSYNPSIISNGLATLLLCKAVHQDGIRVMLSGEGADEFFCGYQGMYNGRNDPTEMRANLIKDLHFTELRRLDLISASFSVEARCPFLDQRVTQIAMMLDVKNLCDIPMNIGKTLLRDTFKHLLPHSIINAPKESFDITSGLQKLVIDELQKEFKSERVALRTIFEKTLANY | not soluble
MSLTLADKVVYEEEIQKSRFIAKAAPVASEEEALAFLAENREPEATHNGHAYKIGLLYRFSDDGEPSGTAGRPILHAIEAQGLDRVAVLVVRYFGGVKLGAGGLVRAYGGVAAEALRRAPKVPLVERVGLAFLVPFAEVGRVYALLEARALKAEETYTPEGVRFALLLPKPEREGFLRALLDATRGQVALE | soluble
MGSDKIHHHHHHMTALFQQLPSVDKILKTPQGLQLITEFGHTAVVATCRELLTQARQFIKKNNQLPEYFSNFDRTFLEIHSHLQKQNQVQIKAVHNLTGTVLHTNLGRALWSEAAQQAALSAMQKNVSLEYDLDEGKRSHRDNYISELLCKLTGAEAACIVNNNAAAVLLMLATFAQGKEVIISRGELIEIGGAFRIPDIMEQAGCHLVEVGTTNRTHLKDYRNAITENTAFLMKVHSSNYQICGFTSSVSEEELTELGQEMNVPVVTDLGSGALVDLSQYGLPKEPTVQEKIAQGVDLVSFSGDKLLGGVQAGIIVGKKEWIEQLQAHPLKRVLRCDKVILAGLEATLRLYLNPEKLTEKLPTLRLLTQPLKQLKINAMRLKERLESRLNSQFELQIEASQAQIGSGSQPMERIPSVAVTIAEKTNAKLSALSARFKQLSQPIIGRMENGKIWLDLRSLADIETLLNTLDEL | not soluble
MSQFKNIIVTGGAGFIGSNFVHYVYNNHPDVHVTVLDKLTYAGNKANLEAILGDRVELVVGDIADAELVDKLAAKADAIVHYAAESHNDNSLNDPSPFIHTNFIGTYTLLEAARKYDIRFHHVSTDEVYGDLPLREDLPGHGEGPGEKFTAETNYNPSSPYSSTKAASDLIVKAWVRSFGVKATISNCSNNYGPYQHIEKFIPRQITNILAGIKPKLYGEGKNVRDWIHTNDHSTGVWAILTKGRMGETYLIGADGEKNNKEVLELILEKMGQPKDAYDHVTDRAGHDLRYAIDASKLRDELGWTPQFTDFSEGLEETIQWYTDNQDWWKAEKEAVEANYAKTQEVIK | soluble
MGHHHHHHSHMKATSVIDDFLGGYFCILGLLQPHLERVAIDALQLCCLLLPPPNRRKLQLLMRMISRMSQNVDMPKLHDAMGTRSLMIHTFSRCVLCCAEEVDLDELLAGRLVSFLMDHHQEILQVPSYLQTAVEKHLDYLKKGHIENPGDGLFAPLPTYSYCKQISAQEFDEQKVSTSQAAIAELLENIIKNRSLPLKEKRKKLKQFQKEYPLIYQKRFPTTESEAALFGDKPTIKQPMLILRKPKFRSLR | not soluble
GPGSMTALSLALGIHDQATTKFGSKDFCDAVEAEAAAANAHQYRMFLLAMETLLQRQWEHYCFHGGNHITKSQQLEEKRLCRYFSVHCMNMEGRGCRDERKHRKLFGSGAAGPLIDFIYRLICHSHCSIECYPITLALTGRFFVEMRKESVATEYEAAVDHLPCVFAVLLLITAKYRDDNFRSNRYFSQLAELSLMEWNALERLVIRVLRFNVNVPFYEYVAYEKLLLKEMMRQEEKKCGFPSIDQSPRSEKMESLMHLDSKNDMSMLFFDHVEMAMKDNASFHSCGVTASSPSLRSQCPLMSVEDSPVSWRQGV | not soluble
MIPRRSCWLILLLNLLNVQSLLDASWWSTVAQLSTALAGHNVKPVCELPGLSPGQAQVCELFKDHMPAVSIGAQNAIQECQRQFTGHRWNCSTHYSTGMLGPIHKMATREAAFTYAILSAGVTHEIGRRCKQGLLTSCGCSDETKPKNVPTDWSWGGCGDNVEYGYKFSRDFIDIREKEHDPKRNHDNGRSLMNRRNNEAGRKILKRHRKPKCKCHGVSGACNMKTCWMQLPSMEQVGKILRNKYDKAIRVQINDRGNLQLLADEATKERKTRALPTDLVFMDDSPDYCRFDRHSGTLGTEGRVCKRGSGGAEGCDSLCCGRGYNTYTQEVKSKCNCKFEWCCKVVCQTCNNVTQVDICK | not soluble
RHAGVVTAVERHGESLLEVTCRLQGDWSHRAGQFAFLTCDRLEGAHPFTIASADRGCGEVRFSIKALGDYTRRLQDNLEVGARVEVEGPYGCFDFRRGLAGRQVWVAAGIGVTPFIAWLESLQAAPESAPSVELHYCVRNSQEALFAGRLRELCEH | not soluble
MGHHHHHHGGHMSLLTFVGLGLWDVKDISVKGLEAVREADEVYVEYYTSKLLSSIEEMEEFFGKRVVELERSDLEENSFRLIERAKSKSVVLLVPGDPMVATTHSAIKLEAERKGVKTRIIHGASISTAVCGLTGLHNYRFGKSATVSWHRSQTPVNVIKANRSIDAHTLLFLDLHPEPMTIGHAVENLIAEDAQMKDLYAVGIARAGSGEEVVKCDRLENLKKIDFGKPLHVMVVLAKTLHFMEFECLREFADAPAELERLVAEGGS | soluble
MGSDKIHHHHHHMIERIYLAKPRGFCAGVVMAIQAVEKAAVREDKPVTVYHSIVHNHTVVERLSEGGRVHFVEDLDAVDALPDSGDTVIFSAHGISPAVRERARSLGLSTIDATCPLVTKVHTEAKKYAREGYTILLIGDSAGHQEVIGTRGEAPENTILVGVLGKTGPGLNDPHAVQVPDPERLVVLTQTTLSVDDTRKTVDILKARFPALVVPPSEDLCYATKNRQDAVKNIAPNVDAFLVLTSTHSSNGMRLLELAEAECGRAYRLETAADLTRLEQNGDLGGVRSVGITSAASTPDDLVQDVVAHFRALNPALEVIEEGEWENIEFREPKKIAPTQELPRTMQ | not soluble
MKFSTIFGATTVMTAVSAAAVSSVMTTKTITATNGNNVYTKVVTDTADPIISYSTTRTVVVSNSDATYTKVVTEGPDTTSEKSTTKTLTLTNGSGSSTNLYTKTVTQAVESSTSSSSSSSSSSSSASSSGAAPAAFQGASVGALALGLISYLL | soluble
MMRTWWLCERTFRARIYVMARERIPEMTINCARERNSTFTSVPTRTWLSSTISAEYVGRNHAHTTPVPANNKDTITTIAEYHCTE | not soluble
QDLARIEQFLDALWLEKNLAENTLNAYRRDLSMMVEWLHHRGLTLATAQSDDLQALLAERLEGGYKATSSARLLSAVRRLFQYLYREKFREDDPSAHLASPKLPQRLPKDLSEAQVERLLQAPLIDQPLELRDKAMLEVLYATGLRVSELVGLTMSDISLRQGVVRVIGKGNKERLVPLGEEAVYWLETYLEHGRPWLLNGVSIDVLFPSQRAQQMTRQTFWHRIKHYAVLAGIDSEKLSPHVLRHAFATHLLNHGADLRVVQMLLGHSDLSTTQIYTHVATERLRQLHQ | soluble
MVESGKAQMESFRIDNNGIQKKSRTKFIAGVGKSLRSAKNLTSKTVQTQFVAYPELAQLLPIFPAERLKKLILNGLDGQEYKQLIDLDQWKQARIFHGYAENLIIPIEKFFHFERFDVHLARFTEADALRLRAMIDRSAHFGFAGICCNYMNNSALKRIFNVEHENFYQTPDERSFDVQCRPGEISITKFGYTVE | not soluble
MADDLNAGPKANREFKNSVFTLLFNEEEAIRDISGAVGAMLGKEISPNTPIKKTTLQNALLGGKLNDLSFVLDDKLIVLIEHQSTINKNMPLRMLHYICEIYNHLYEKKDLYRKKKILIPKPVFIVLYNGEEDIKDFEEYLLSDLFKDFDISKEQPYLELRVQVRNINKGHSAEIVKQSPLLLDYVAFVEEVREVNKEEGMTPELAMEKAIENCIKKGILTVFLTRHKEEVMKMLVAEWDYDLDREVARDEGREEGREEGRTEETANNIKDLYRIGVSIETIAKAFGLSEHDVKDILGL | soluble
LAVLMVLAVNFGTVTTFAAMSDEAESISVNKPVTDNLSSVNDVKYYEVELPAPGKVNLSFSHANLERTYVYWKVTMFDSVENEVLYFESTGTNTDGKSMSVYLDKGTYYVRVKSEGYWYSTTDYTLCVNYTENKGEYEIEPNYSKELATEISVNKPVIGNHRVKGDTDFYKFTISEPGKVDLSFNHANLERTYVYWKVTMFDSVENIVLYFESTGTNTTGKSMNAYLSEGTYYIRVTTDDYWHSTADYTLCVNYTENQGEYEIEPNNSQDNATLIEVDEPVTGNLRTSSDVDYYRFVMPDSGKVYLGFNHPNLERTYVYWKVSLYDANGNRLYQLNSRGTDTVGKSDEIKIGSGTYYVKVEYEGYWHSSADYSLTVNTVGGIPKVKVFLNGKRIRFDQPPIIQNGRTLVPLRAIFEAMNATVSWDDKTKTVTAKKGDTTIVMTIGNKTMKKNGVAIELDVPPQIVNGRTLVPARAVAESFGAKVDWDGSTRTVTITEGN | not soluble
MFIREEEQMKRMIITIGRQSGSSGRKVGELLAERLSLPLYGKAELQKIAEGTDDYEEVQAFYEEEPVNSLLYAIAMSQFEQEVGRIPFQRIRELASKESCIIIGRCAGHIFREDPEAVRVFIHADPKIRVQRIMEREGLSETKAKKFLEDTDSRRASFHKYYTKQEWGLAQDYELCLDSGVLGIEGTVEVLTEYLRFRGFLGNE | not soluble
MGSDKIHHHHHHAKESEQKVTIDSAKHEKHTKDKEENNSANTVFFDKINDLLVASVKEFEGTVGISYLDLETGEQRSVNGQHEFYTASTIKVPLTMLVADTVASGQKKWTDLIPYNAEEDYEEGTGIIAYNIQPEYPLKTLQEYAITYSDNIAKNMLYDTLGGDAKAKREMYQRYLHKTPSIEEPQFSSEDALVILQKLYTEKATKPDYQAIYDSMKQSVFHERMETPTTQGKVAHKIGSYDEFIHDMGILETPHPFALAIFTKGPDNAKSAAFIASVTDKLWQLQVSEYPNQ | not soluble
MLIHIGIDDTDSPNGMCTTYIGAILYREISKIAEPLDFPRLIRLNPNVPYKTRGNGAVAMSFKIDEEKIKEVKTLVIRYVRELADIDHENTNPGIVFLIGEVPKELEEFSLRALREHVTIEEAEHVARKVNAEVYKFKLGRGIIGGLAAIGYPLEKFTYELLAYRKREYWGTPRRVIKESVFYADKWSYPFTYDNVDPYKRTVLITPHGKDPVLVGIRGIDVGKILQVFEMIKIEEPIEFFQVYKTNQNTDDHLVVKKIKDVKPYDNVVIRGKVAGKYWEKGRHVFFELEDETGKIRVAAFEPTKKFRNYVRKLLPGDEVIIAGGVKEFEGVLTVNLEKFYPVNLVPKVEYEKPRCPKCGGTMKSKGDYLKCKKCGYKMEKILTPVKRPRDLKKKIYEVPPDARKHISRPLVLPGGEDKILEALLEHHHHHH | soluble
MSLDSPTASSNGDLIEEIQASSTSTDPRTFTGLSIVEDIGDVVPVTDNASPALPVSLTDADGNDVVVEDVSRILPLDLYGTYSKTIAGLGLVDNIVGRTVSSTEPALADTEVVTTGGHTLNAEAILNLHPTLVIIDHSIGPREVIDQIRAAGVATVIMSPQRSIASIGDDIRDIASVVGLPEEGEKLAERSVAEVEEASTVVDELTPEDPLKMVFLYARGTGGVFFILGDAYGGRDLIEGLGGVDMAAEKGIMDLAPANAEALAELNPDVFVMMSEGLVSTGGIDGLMERPGIAQTTAGQNQRVLALPDGQSLAFGAQTGELLLRASRELYVQGGEGHHHHHH | soluble
MDVPADSHIKYEDAIDYWTDVDATVDGVLGGYGEGTVVPTMDVLGSNNFLRKLKSRMLPQENNVKYAVDIGAGIGRVSKTMLHKHAAKIDLVEPVKPFIEQMHVELAELKDKGQIGQIYEVGMQDWTPDAGKYWLIWCQWCVGHLPDAELVAFLKRCIVGLQPNGTIVVKENNTPTDTDDFDETDSSVTRSDAKFRQIFEEAGLKLIASERQRGLPRELYPVRMYALKPMPN | soluble
